Measurements published in publication PMC2690451 (The EMBO Journal, 2009).

T1: MBP-RacA (B. subtilis, UniProt P45870 1-184)
T1 sequence: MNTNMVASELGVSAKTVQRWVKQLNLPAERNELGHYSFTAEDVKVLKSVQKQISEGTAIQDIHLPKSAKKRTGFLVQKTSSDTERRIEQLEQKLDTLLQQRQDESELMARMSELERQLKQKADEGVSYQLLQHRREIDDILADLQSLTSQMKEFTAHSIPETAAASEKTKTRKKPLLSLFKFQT


Experiments:
[1] = molecular target: T1, MBP-RacA; assay: density gradient flotation with liposomes
[2] = molecular target: the molecule itself; assay: SEC

Row | binding result [1] | Binder | binding result [2]
1 | binds | DivIVA (natural protein) MPLTPNDIHNKTFTKSFRGYDEDEVNEFLAQVRKDYEIVLRKKTELEAKVNELDERIGHFANIEETLNKSILVAQEAAEDVKRNSQKEAKLIVREAEKNADRIINESLSKSRKIAMEIEELKKQSKVFRTRFQMLIEAQLDLLKNDDWDHLLEYEVDAVFEEKE | –
2 | – | DivIVA-MBP (natural protein) MPLTPNDIHNKTFTKSFRGYDEDEVNEFLAQVRKDYEIVLRKKTELEAKVNELDERIGHFANIEETLNKSILVAQEAAEDVKRNSQKEAKLIVREAEKNADRIINESLSKSRKIAMEIEELKKQSKVFRTRFQMLIEAQLDLLKNDDWDHLLEYEVDAVFEEKE | binds
3 | – | ΔC-DivIVA-MBP (domain or fragment) MPLTPNDIHNKTFTKSFRGYDEDEVNEFLAQVRKDYEIVLRKKTELEAKVNELDERIGHFANIEETLNKSILVAQEAAEDVKRNSQKEAKLIVREAEKNADRIINESLSKSRKIAMEIEELKKQSKVFRTRFQMLIEAQLDLLK | binds
4 | – | ΔN-DivIVA-MBP (domain or fragment) RKKTELEAKVNELDERIGHFANIEETLNKSILVAQEAAEDVKRNSQKEAKLIVREAEKNADRIINESLSKSRKIAMEIEELKKQSKVFRTRFQMLIEAQLDLLKNDDWDHLLEYEVDAVFEEKE | binds
